The source of these data is paper PMC11417211.

For test [1], the target named is elastase from porcine pancreas (porcine) (UniProt P00772).
The target in test [2] is α-chymotrypsin from bovine pancreas (bovine).
Test [3] has as its target Cathepsin G from human leukocytes (human) (UniProt P08311).
UniProt P08311, sequence (P08311 21-244): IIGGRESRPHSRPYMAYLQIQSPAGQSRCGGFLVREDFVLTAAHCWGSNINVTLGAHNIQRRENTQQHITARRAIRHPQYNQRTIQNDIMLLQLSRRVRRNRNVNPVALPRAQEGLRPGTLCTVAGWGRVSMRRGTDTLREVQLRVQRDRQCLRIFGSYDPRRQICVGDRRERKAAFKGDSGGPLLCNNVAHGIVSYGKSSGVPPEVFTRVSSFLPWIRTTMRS

UniProt P00772, sequence (P00772 27-266): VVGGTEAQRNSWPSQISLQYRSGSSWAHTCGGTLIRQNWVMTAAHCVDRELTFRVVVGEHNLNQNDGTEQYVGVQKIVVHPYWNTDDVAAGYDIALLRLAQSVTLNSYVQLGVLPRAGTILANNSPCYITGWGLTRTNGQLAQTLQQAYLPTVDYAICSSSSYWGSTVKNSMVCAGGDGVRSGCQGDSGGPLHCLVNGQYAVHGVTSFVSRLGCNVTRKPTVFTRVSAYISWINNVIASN

In the case of “E. coli expressed Hyalomma anatolicum serpin-1 (eHAMpin-1) (natural protein)”, the decrease of the proteolytic activity of the protease (100 nM) after preincubation with 1 μM eHAMpin-1 for 30 min at 37 °C; chromogenic substrate in test [1] is more than 45%. Further, the decrease of the proteolytic activity of the protease (96 nM) after preincubation with 1 μM eHAMpin-1 for 30 min at 37 °C; chromogenic substrate in test [2] was more than 90%. In test [3], this substance gave a decrease of the proteolytic activity of the protease (110 nM) after preincubation with 1 μM eHAMpin-1 for 30 min at 37 °C; chromogenic substrate of more than 90%.
